The record followed here is publication PMC8798045.

For test [1], the target named is Microtubules polymerized from bovine brain tubulin (bovine) (UniProt Q6B856). The test can be described thus: single-molecule TIRF microscopy (dwell times); 5 nM 647-SSNA1 (100% labeled) alone on surface-bound GMPCPP-stabilized microtubule seeds; 5-10 min after SSNA1 addition; 5 fps; 35°C.
For test [2] the target is unchanged. The test can be described thus: single-molecule TIRF microscopy (dwell times); spiking: 5 nM 647-SSNA1 with 1 µM 488-SSNA1 on surface-bound GMPCPP-stabilized microtubule seeds; 5-10 min after SSNA1 addition; 5 fps; 35°C.
The target is the same in test [3]. Nature of the test: single-molecule TIRF microscopy (dwell times); 5 nM 647-SSNA1 (100% labeled) alone on surface-bound GMPCPP-stabilized microtubule seeds; 0-5 min after SSNA1 addition; 5 fps; 35°C.
Test [4] has the same target. The test can be described thus: single-molecule TIRF microscopy (dwell times); spiking: 5 nM 647-SSNA1 with 1 µM 488-SSNA1 on surface-bound GMPCPP-stabilized microtubule seeds; 0-5 min after SSNA1 addition; 5 fps; 35°C.
Test [5] has the same target. The test can be described thus: TIRF microscopy; dynamic microtubules grown from GMPCPP seeds with 9 µM tubulin and 5 µM 488-SSNA1 (7% labeled), imaged 60 min; SSNA1 intensity at the microtubule end region; 35°C.

With “Human 6His-SSNA1 (Sjögren's syndrome nuclear autoantigen-1) (from UniProt O43805 1-119) (natural protein)”, the mean single-molecule dwell time in test [1] amounted to 10 s; in test [2] it was 39 s; in test [3], 12 s; in test [4] it was 19 s. Besides, the association rate (events µm^–1 nM^–1 s^–1) in test [2] was found to be 0.0024; in test [4] it was 0.00096. This substance also returned an SSNA1 fluorescence intensity at the microtubule end region, 3 min in test [5] of 0.33 a.u.
